Positions count from the first letter of the chain named.
Key:
RAP d3 E251K, K270E = target: T1, RAP d3 E251K, K270E (human, UniProt P30533 235-353); assay: solid-phase binding assay: LRP2 CR89 coated on the plate, d3 ligand in solution, anti-RAP detection, absorbance
T1 construct: range 201-319 (mature RAP numbering); Forward mutant of m1; same construct; also called RAP E251K, K270E; not shown: N-terminal hexahistidine and S-peptide tags of pET30(+)a
T1 sequence (looked up): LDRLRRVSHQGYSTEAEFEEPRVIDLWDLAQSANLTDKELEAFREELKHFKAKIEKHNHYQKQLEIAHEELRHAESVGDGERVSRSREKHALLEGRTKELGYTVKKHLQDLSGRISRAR
Procedure: Solid phase binding assays—Purified, refolded CR protein (1 μg) was bound to Nunc Maxisorp™ 96-well plates in TBS pH 8 supplemented with 5 mM CaCl₂ (TBSC) overnight at 4° C. Wells were washed with TBSC and then blocked with TBSC containing 2% bovine serum albumin (BSA). RAP ligands were then incubated with the immobilized receptor at a range of concentrations for 2 hours in the above blocking buffer supplemented with 0.05% Tween-20 at room temperature. Control wells contained no added ligand. As an additional control, to determine whether the absence of calcium affected binding, 10 mM EGTA was included in the incubation medium for some samples. Wells were washed with TBSTC and bound ligands detected with polyclonal anti-RAP (BP41/42, 1:1,000, BioMarin). Excess primary antibody was removed and wells washed before incubation with the secondary antibody, HRP-conjugated goat anti rabbit IgG (Bio-Rad). After washing, TMB substrate solutions (Bio-Rad) were added to detect HRP. Color development was stopped with 1N HCl. Absorption at 450 nm was measured with a microplate spectrophotometer (Molecular Devices). Data were plotted and Kd values derived by non-linear regression with the assumption of single-site binding (GraphPad Prism).
Next, the binding of RAP d3 and MegaRAP1 d3 proteins to LRP1 CR3-5 and LRP2 CR89 was assessed. […] In all cases, 10 mM EGTA prevented binding of both RAP d3 and MegaRAP1 d3 to CR proteins. Since calcium was the only divalent metal ion present in the binding buffer, this observation is consistent with both RAP d3 and MegaRAP1 d3 binding to calcium-loaded CR pairs. […] Therefore, wild-type RAP d3 and MegaRAP1 d3 have inverted binding preferences for these two receptor fragments.

MegaRAP1 d3 [1] = target: T2, MegaRAP1 d3 (human, UniProt P30533 235-353); assay: solid-phase assay, coated CR protein
T2 construct: range 201-319 (mature RAP numbering); d3 of the variant selected on LRP2 CR89; also called RAPv2A d3; RAP v2A; not shown: N-terminal hexahistidine and S-peptide tags of pET30(+)a
T2 sequence (looked up): T1 sequence (looked up) with S13T, E17K, H49Y, K56A
Procedure: Wells were washed with TBSTC and bound ligands detected with polyclonal anti-RAP (BP41/42, 1:1,000, BioMarin). Excess primary antibody was removed and wells washed before incubation with the secondary antibody, HRP-conjugated goat anti rabbit IgG (Bio-Rad). After washing, TMB substrate solutions (Bio-Rad) were added to detect HRP. Color development was stopped with 1N HCl. Absorption at 450 nm was measured with a microplate spectrophotometer (Molecular Devices). Data were plotted and Kd values derived by non-linear regression with the assumption of single-site binding (GraphPad Prism).
One premise of this work was that amino acids at A, C, A′ and C′ within the calcium-binding loops of a CR pair were key determinants of binding affinity for RAP and would be similarly important for binding of RAP variants. To test this idea, mutant LRP2 CR89 were prepared in which the native, non-canonical residues at these positions were sequentially substituted with the non-native, canonical residues. As defined above, the A, C, A′, C′ string for LRP2 CR89 is YVWR. Mutants included LRP2 CR89Y1042W (WVWR), LRP2 CR89V1047D (YDWR), LRP2 CR89R1088D (YVWD), LRP2 CR89V1047D R1088D (YDWD), LRP2 CR89 Y1042W V1047D R1088D (WDWD), LRP2 CR89Y1042W V1047D (WDWR), LRP2 CR89Y1042W R1088D (WVWD). Binding to both RAP d3 and MegaRAP1 d3 were measured for each LRP2 CR89 mutant by solid-phase assay. […] The A′ position in LRP2 CR89 is a tryptophan, the canonical residue for wild-type RAP d3 binding, and was not mutated in our studies. […] We did see a small increase in binding of RAP d3 to the WVWD and WDWD combinations at A, C, A′ and C′.

MegaRAP1 d3 [2] = target: T2, MegaRAP1 d3; assay: solid-phase assay, coated CR protein (same value as Table 1)

B1: LRP2 CR89 (receptor)
chain: not shown
notes: domain: CR89; Limits of the fragment are set only by the primers LRP2CR8F and LRP2CR9R; also called YVWR; L2 CR89; not shown: N-terminal hexahistidine and S-peptide tags of pET30(+)a
B1 was tested, and the binding result (RAP d3 E251K, K270E) was “no binding (tested: 100 nM)”, the Kd (MegaRAP1 d3 [1]) was 33 nM and the Kd (MegaRAP1 d3 [2]) was 38 nM.

— patent US20090281024A1 (RAPTOR PHARMACEUTICALS, published 2009)
